Like-named read-outs stand apart in the source and are kept apart here.

The target in test [1] is T1, CoV2_5P prefusion-stabilized spike protein (SARS-CoV-2, UniProt P0DTC2 14-1208).
T1 construct: also called 5P trimer; wildtype 5P
The test can be described thus: ELISA.

The target in test [2] is T2, CoV2_5P_229EFP (SARS-CoV-2 spike with 229E fusion …, UniProt P0DTC2 14-1208). Description: ELISA, AUC.
In test [3] the target is T3, CoV2_5P_MERSFP (SARS-CoV-2 spike with MERS fusion …, UniProt P0DTC2 14-1208). Description: ELISA, AUC.
Test [4] has as its target T4, CoV2_5P_NL63FP (SARS-CoV-2 spike with NL63 fusion …, UniProt P0DTC2 14-1208). Description: ELISA, AUC.
Test [5] has as its target T5, CoV2_5P_OC43FP (SARS-CoV-2 spike with OC43 fusion …, UniProt P0DTC2 14-1208). Description: ELISA, AUC.
For test [6], the target named is T6, CoV2_5P_NonSFP (SARS-CoV-2, UniProt P0DTC2 14-1208).
T6 construct: also called scrambled fusion peptide spike
Description: ELISA, AUC.

The next test deals with T7, off-target V5 peptide.
T7 construct: also called V5 tag
T7 peptide: GKPIPNPLLGLDST
The test can be described thus: ELISA on fusion peptides.

The target in the next test is CoV2_5P_HKU1FP (SARS-CoV-2 spike with HKU1 fusion …, UniProt P0DTC2 14-1208). Description: ELISA AUC on 5P spikes with varying fusion peptides.
The target in test [7] is T1, CoV2_5P prefusion-stabilized spike …. The test can be described thus: ELISA, AUC.
Test [8] has the same target. Description: ELISA, AUC. This is another data set of the same source.
For test [9], the target named is T4, CoV2_5P_NL63FP. The test can be described thus: ELISA, AUC. This is another data set of the same source.
Test [10] has as its target T5, CoV2_5P_OC43FP. The test can be described thus: ELISA, AUC. The source holds these as a separate data set.
The target of test [11] is T6, CoV2_5P_NonSFP. The test can be described thus: ELISA, AUC. This is another data set of the same source.
For test [12], the target named is T2, CoV2_5P_229EFP. The test can be described thus: ELISA AUC on 5P spikes with varying fusion peptides.
In test [13] the target is T3, CoV2_5P_MERSFP. Described as above.
For test [14], the target named is T2, CoV2_5P_229EFP. Description: ELISA, AUC. This is another data set of the same source.
The target of test [15] is T3, CoV2_5P_MERSFP. Description: ELISA, AUC. This is another data set of the same source.

B1: C2691 (antibody, V domains shown)
VH: QVQLQQSGPELVRPGESVKISCKGSGYTFTDYAMHWVKQSHAKSLEWIGIISFYYDNTKYNQNFKGKATMTVDKSSSTAYMELARLTSEDSAIYFCASQGIHYYGSFAYWGQGTLVTVSA
VL: DIVMTQSQKFMSTSVGDRVSVSCKASQNVGTNLGWYQQKPGQSPKALIYSASYRYSGVPDRFTGSGSGTDFTLTISNVQSEDLAEYFCQQYNSSPLTFGAGTKLELK
notes: also called lineage HV1-67/KV6-15 antibody C2691
On to B1, for which the binding result was “binds” in [1]; “binds” with CoV2_5P_229EFP [2]; “binds” in the test with CoV2_5P_MERSFP [3]; “binds” in the test with CoV2_5P_NL63FP [4]; “binds” with CoV2_5P_OC43FP [5]; “no binding” in the test with CoV2_5P_NonSFP [6]. Moreover, the binding result is reported as “no binding (tested: dilution 0.05 (no unit))” with off-target V5 peptide and “binds” with CoV2_5P_HKU1FP.

B2: C2891 (antibody, V domains shown)
VH: QVQLQQSGPALVRPGESVKISCKGSGYTFTDYAMHWVKQSRAKSLEWIGIFSFYYDNTNYTQKFKGKATMTVDKSSSTAYMELARLTSEDSAIYYCASQGIHYYGSFAYWGQGTLVTVSA
VL: DIVMTQSQKFMSTSVGDRVSVTCKASQNVATNLGWYQQKPGQSPKTLIYSASYRYSGVPDRFTGSGSGTDFTLTISNVQSEDLAEYFCHQYNGYPLTFGAGTKLELK
Consider B2, for which the binding result (in test [7]; with CoV2_5P_229EFP [2]; in the test with CoV2_5P_MERSFP [3]; in the test with CoV2_5P_NL63FP [4]; with CoV2_5P_OC43FP [5]; with CoV2_5P_NonSFP [6]) was “no binding” in each case.

B3: C2503 (antibody, V domains shown)
VH: QVQLQQSGPELVRPGESVKISCKGSGYTFTDYAMHWVKQSHSKSLEWIGIISFYYDNTKYNQNFKGKATMTVDKSSSTAYMELARLTSEDSAIYFCASQGIHYYGSFAYWGQGTLVTVSA
VL: DIVMTQSQKFMSTSVGDRVSVTCKASQNVGTNVGWYQQKPGQSHKALIYSASYRYSGVPDRFTGSGSGTDFTLTISNVQSEDLADYFCQQYNNYPLTFGAGTKLELK
notes: Lineage HV1-67/KV6-15
For B3, the binding result in the test with CoV2_5P_NonSFP [6] is on record as “no binding”.

B4: C2866 (antibody, V domains shown)
VH: QVQLQQSGPELVRPGESVKISCKGSGYTFTDYAMHWVKQSHAKSLEWIGIFSFYYDNTKYNQNFKGKATMTVDKSSSTAYMELARLTSEDSAIYFCASQGIHYYGSFAYWGQGTLVTVSA
VL: DIVMTQSQKFMSTSVGDRVSVTCKASQNVGTNVGWYQQKPGQSPQALIYSASYRYSGVPDRFTGSGSGTDFTLTISNVQSEDLAEYFCQQYNSYPLTFGAGTKLELK
notes: Lineage HV1-67/KV6-15
B4: the binding result in the test with CoV2_5P_NonSFP [6] is “no binding”.

B5: C668 (antibody, V domains shown)
VH: EVKLVESGGGLVKPGGSLKLSCLVSGITFSNDAMSWVRQTPEKRLEWVASISSGGRNYYPDSVKGRFTISRDNARNILYLQMSSLRSEDTAMYFCAREGISVWAMDYWGQGTSVTVSS
VL: DIVMTQAAFSNPVTLGTSASISCRSSKSLLHSNGITYLYWYLQRPGQSPQLLIYRMSNLASGVPDRFSSSGSGTDFTLRISRVEAEDVGVYYCAQNLELPPTFGGGTKLEIK
notes: also called lineage HV5-6-5/KV2-109 antibody C668
As to B5, in test [1], the “EC50 (read off the curve)” value is ~0.2 µg/mL.

B6: C862 (antibody, V domains shown)
VH: EVKLVESGGGLVKPGGSLKLSCAASGITFSSSAMSWVRQTPEKRLEWVASISSGGHTYYLDSMKGRFTISRDNARNILYLQMGSLRSEDTAVYYCAREGIYVWAMDYWGQGTSVTVSS
VL: DIVMTQAAFSNPVTLGTSASISCRSSKSLLQSNGITYLYWYLQKPGQSPQLLIYRMSNLASGVPDRFSGSGSGTDFTLRISRVEAEDVGIYYCAQNLELPPTFGGGTKLEIK
For B6, the binding result was “binds” in test [8]; “binds” with CoV2_5P_NL63FP [9]; “binds” with CoV2_5P_OC43FP [10]; “no binding” in the test with CoV2_5P_NonSFP [11]; “binds” with CoV2_5P_229EFP [12]; “binds” in the test with CoV2_5P_HKU1FP. In the test with CoV2_5P_MERSFP [13], the binding result was “binds”.

B7: C1766 (antibody, V domains shown)
VH: EVKLVESGGGLVKPGGSLKLSCVASGFTFSNDAMSWVRQTPEKRLEWVASISSGGRKYYPDNVKGRFTISRDNARNILYLQMSSLRSEDTAMYYCAREGIYVWAMDYWGQGTSVTVSS
VL: DIVMTQAAFSNPVTLGTSASISCRSSESLLHSNGITYLYWYLQKPGQSPQLLIYRMSNLASGVPDRFSSSGSGTDFTLRISRVEAEDVGVYYCAQNLELPPTFGGGTKLEIK
Consider B7, for which the binding result in [8] is reported as “binds”; with CoV2_5P_229EFP [14], “binds”; in the test with CoV2_5P_MERSFP [15], “binds”; with CoV2_5P_NL63FP [9], “binds”; with CoV2_5P_OC43FP [10], “binds”; in the test with CoV2_5P_NonSFP [11], “no binding”. For the same molecule, the binding result with CoV2_5P_HKU1FP is “binds”.

The values above are taken from US20250134988A1 (WISTAR INSTITUTE OF ANATOMY AND BIOLOGY, published 2025).
